Experimental data: patent US20200024322A1 (Eli Lilly, published 2020)

Experiments:
[1] = biological target: T1, human GIP receptor (human, UniProt P48546 22-466); experiment: [125I]-GIP competition SPA, hGIPR membranes
T1 construct: whole, on cells; also called hGIPR; hGIP-R
T1 sequence (looked up): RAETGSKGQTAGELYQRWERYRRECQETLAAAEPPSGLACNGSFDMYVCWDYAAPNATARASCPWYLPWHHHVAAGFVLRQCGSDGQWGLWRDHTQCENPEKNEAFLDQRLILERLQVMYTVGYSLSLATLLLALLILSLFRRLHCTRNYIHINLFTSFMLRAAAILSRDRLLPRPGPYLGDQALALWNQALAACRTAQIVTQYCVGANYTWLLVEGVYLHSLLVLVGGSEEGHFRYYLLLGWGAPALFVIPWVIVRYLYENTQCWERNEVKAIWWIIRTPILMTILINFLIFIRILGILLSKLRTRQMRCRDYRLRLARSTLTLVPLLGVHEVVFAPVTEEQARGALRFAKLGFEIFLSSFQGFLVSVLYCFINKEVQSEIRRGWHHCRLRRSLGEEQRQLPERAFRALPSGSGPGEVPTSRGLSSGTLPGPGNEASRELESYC

[2] = biological target: T2, human glucagon receptor (human, UniProt P47871 26-477); experiment: [125I]-Gcg competition SPA, hGcgR membranes
T2 construct: whole, on cells; also called hGcgR; GcgR

[3] = biological target: T3, human GLP-1 receptor (human, UniProt P43220 24-463); experiment: [125I]-GLP-1 competition SPA, hGLP-1R membranes
T3 construct: whole, on cells; also called hGLP-1R; hGLP1R
In short: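 Kᵢ values are geometric means (SEM) over replicates run on separate days, derived from IC₅₀ of four-parameter curve fits. Buffer: HEPES 25 mM pH 7.4 with CaCl₂ 2.5 mM, MgCl₂ 1 mM, bacitracin 0.1%, TWEEN-20 0.003%, EDTA-free protease inhibitors.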

T2 sequence (P47871 26-477): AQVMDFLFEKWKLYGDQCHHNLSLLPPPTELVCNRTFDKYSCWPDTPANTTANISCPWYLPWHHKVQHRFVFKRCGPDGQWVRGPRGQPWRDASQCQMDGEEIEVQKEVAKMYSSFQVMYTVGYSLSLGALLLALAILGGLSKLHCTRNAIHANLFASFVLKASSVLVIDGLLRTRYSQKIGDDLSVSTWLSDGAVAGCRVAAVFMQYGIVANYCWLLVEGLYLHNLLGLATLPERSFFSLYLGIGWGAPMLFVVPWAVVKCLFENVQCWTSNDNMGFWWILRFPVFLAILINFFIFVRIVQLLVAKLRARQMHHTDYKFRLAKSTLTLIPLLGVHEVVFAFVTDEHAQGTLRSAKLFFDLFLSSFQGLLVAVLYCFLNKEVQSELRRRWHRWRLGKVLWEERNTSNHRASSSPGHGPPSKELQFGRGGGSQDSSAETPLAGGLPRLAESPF

| Binder | Ki [1] | Ki [2] | Ki [3] |
| --- | --- | --- | --- |
| YXEGTXTSDYSIXLDEKAQXEFIXYLIEGG (Aib2; αMeF(2F)6; αMeL13; K17((2-[2-(2-Amino-ethoxy)-ethoxy]-acetyl)2-(γ-Glu)-CO-(CH2)16-CO2H); Aib20; D-Glu24; C-terminal NH2) [Example 220] | 0.0919 nM | 377 nM | 2.71 nM |
| XXEGTFTSDYSIXLDXKAQXEFIEYLIAGGPSSGAPPPS (D-Tyr1; Aib2; αMeL13; Orn16; K17((2-[2-(2-Amino-ethoxy)-ethoxy]-acetyl)2-(γ-Glu)-CO-(CH2)18-CO2H); Aib20; C-terminal NH2) [Example 349] | 0.08 nM |  | 1.72 nM |
| XXEGTFTSDYSIXLDXKAQXEFVEYLIAGGPSSGAPPPS (D-Tyr1; Aib2; αMeL13; Orn16; K17((2-[2-(2-Amino-ethoxy)-ethoxy]-acetyl)2-(γ-Glu)-CO-(CH2)18-CO2H); Aib20; C-terminal NH2) [Example 359] | 0.0874 nM |  | 2.59 nM |
| YXEGTXTSDYSIXLDEKAQXEFIXYLIEGGPSSGAPPPS (Aib2; αMeF6; αMeL13; K17((2-[2-(2-Amino-ethoxy)-ethoxy]-acetyl)2-(γ-Glu)-CO-(CH2)16-CO2H); Aib20; D-Glu24; C-terminal NH2) [Example 213] | 0.365 nM | 544 nM | 2.75 nM |
| YXEGTXTSDYSIXLDEKAQXEFIXYLIEGGPSSGAPPPS (Aib2; αMeF(2F)6; αMeL13; K17((2-[2-(2-Amino-ethoxy)-ethoxy]-acetyl)2-CO-(CH2)18-CO2H); Aib20; D-Glu24; C-terminal NH2) [Example 215] | 0.0666 nM | 75.2 nM | 6.85 nM |
| YXEGTFTSDYSIXLDEKAQXAFIXYLIAGGPSSGAPPPS (Aib2; αMeL13; K17((2-[2-(2-Amino-ethoxy)-ethoxy]-acetyl)2-(γ-Glu)-CO-(CH2)18-CO2H); Aib20; D-Glu24; C-terminal NH2) [Example 343] | 0.0374 nM |  | 13.3 nM |
| YXEGTXTSDLSIXLDXKAQXEFIXXLIEGGPSSGAPPPS (Aib2; αMeF(2F)6; αMeL13; Orn16; K17((2-[2-(2-Amino-ethoxy)-ethoxy]-acetyl)2-(γ-Glu)-CO-(CH2)16-CO2H); Aib20; D-Glu24; αMeY25; C-terminal NH2) [Example 238] | 0.0403 nM | 230 nM | 0.548 nM |
| YXEGTXTSDYSIXLDEKAQXEFIXXLIEGGPSSGAPPPS (Aib2; αMeF(2F)6; αMeL13; K17((2-[2-(2-Amino-ethoxy)-ethoxy]-acetyl)2-(γ-Glu)-CO-(CH2)18-CO2H); Aib20; D-Glu24; αMeY25; C-terminal NH2) [Example 222] | 0.0495 nM | 71.3 nM | 3.59 nM |
| YXEGTXTSDYSIXLDXKAQXEFIXYLIEGGPSSGAPPPS (Aib2; αMeF(2F)6; αMeL13; Dap16; K17((2-[2-(2-Amino-ethoxy)-ethoxy]-acetyl)2-(γ-Glu)-CO-(CH2)18-CO2H); Aib20; D-Glu24; C-terminal NH2) [Example 218] | 0.0593 nM | 270 nM | 2.54 nM |
| YXEGTXTSDXSIXLDXKAQXAFIXXLIEGGPSSGAPPPS (Aib2; αMeF(2F)6; 4Pal10; αMeL13; Orn16; K17((2-[2-(2-Amino-ethoxy)-ethoxy]-acetyl)2-(γ-Glu)-CO-(CH2)16-CO2H); Aib20; D-Glu24; αMeY25; C-terminal NH2) [Example 240] | 0.0284 nM | 204 nM | 0.552 nM |
| YXEGTXTSDYSIXLDEKAQXEFIXYLIEGGPSSGAPPPS (Aib2; αMeF(2F)6; αMeL13; K17((2-[2-(2-Amino-ethoxy)-ethoxy]-acetyl)2-(εK)-CO-(CH2)18-CO2H); Aib20; D-Glu24; C-terminal NH2) [Example 216] | 0.0559 nM | 45.2 nM | 2.34 nM |
| YXEGTXTSDYSIXLDEKAQXEFIXYLIEGGPSSGAPPPS (Aib2; αMeF(2F)6; αMeL13; K17((2-[2-(2-Amino-ethoxy)-ethoxy]-acetyl)2-(γ-Glu)-CO-(CH2)16-CO2H); Aib20; D-Glu24; C-terminal NH2) [Example 221] | 0.0414 nM | 154 nM | 1.77 nM |
| YXEGTXTSDYSIXLDEKAQXEFIEXLIEGGPSSGAPPPS (Aib2; αMeF(2F)6; αMeL13; K17((2-[2-(2-Amino-ethoxy)-ethoxy]-acetyl)2-(γ-Glu)-CO-(CH2)18-CO2H); Aib20; αMeY25; C-terminal NH2) [Example 223] | 0.0921 nM | 46.5 nM | 5.62 nM |
| YXEGTXTSDYSIXLDXKAQXEFIXYLIEGGPSSGAPPPS (Aib2; αMeF(2F)6; αMeL13; Dab16; K17((2-[2-(2-Amino-ethoxy)-ethoxy]-acetyl)2-(γ-Glu)-CO-(CH2)18-CO2H); Aib20; D-Glu24; C-terminal NH2) [Example 217] | 0.0376 nM | 516 nM | 2.02 nM |
| YXEGTXTSDYSIXLDEKAQXEFIXYLIEGGPSSGAPPPS (Aib2; αMeF(2F)6; αMeL13; K17((2-[2-(2-Amino-ethoxy)-ethoxy]-acetyl)2-CO-(CH2)16-CO2H); Aib20; D-Glu24; C-terminal NH2) [Example 214] | 0.0304 nM | 126 nM | 1.99 nM |
| YXEGTXTSDYSILLDEKAQXEFIXYLIEGGPSSGAPPPS (Aib2; αMeF(2F)6; K17((2-[2-(2-Amino-ethoxy)-ethoxy]-acetyl)2-(γ-Glu)-CO-(CH2)18-CO2H); Aib20; D-Glu24; C-terminal NH2) [Example 226] | 0.0254 nM | 200 nM | 4.1 nM |
| YXEGTXTSDYSIXLDEKAQXEFIXYLIEGGPSSGAPPPS (Aib2; αMeF(2F)6; Aib13; K17((2-[2-(2-Amino-ethoxy)-ethoxy]-acetyl)2-(γ-Glu)-CO-(CH2)18-CO2H); Aib20; D-Glu24; C-terminal NH2) [Example 224] | 0.0482 nM | 627 nM | 6.86 nM |
| YXEGTXTSDYSIXLDEKAQXEFIXYLIEGGPSSGAPPPS (Aib2; αMeF6; αMeL13; K17((2-[2-(2-Amino-ethoxy)-ethoxy]-acetyl)2-(γ-Glu)-CO-(CH2)18-CO2H); Aib20; D-Glu24; C-terminal NH2) [Example 227] | 0.0146 nM | 113 nM | 2.01 nM |
